{
  "source": "paper PMC5436651",
  "about": "(PLoS ONE, 2017)",
  "proteins": {"B1": {"name": "RIP2K_(L294F) (RIP2 kinase domain 1-300 with the spontaneous mutation L294F), crystallised with AMPPCP (domain or fragment)", "chain": "GAMAMNGEAICSALPTIPYHKLADLRYLSRGASGTVSSARHADWRVQVAVKHLHIHTPLLDSERKDVLREAEILHKARFSYILPILGICNEPEFLGIVTEYMPNGSLNELLHRKTEYPDVAWPLRFRILHEIALGVNYLHNMTPPLLHHDLKTQNILLDNEFHVKIADFGLSKWRMMSLSQSRSSKSAPEGGTIIYMPPENYEPGQKSRASIKHDIYSYAVITWEVLSRKQPFEDVTNPLQIMYSVSQGHRPVINEESLPYDIPHRARMISLIESGWAQNPDERPSFLKCLIELEPVFRTFEEI", "notes": "The methods say the AMPPCP crystals came from RIP2K_(L294F); the results call this structure wild-type RIP2K; no density for the phosphorylation sites; also called RIPK_(L294F); RIP2K-AMPPCP; not shown: His-tag, N-terminal, cleaved"}, "B2": {"name": "RIP2K_(K47R) (RIP2 kinase domain 1-300, kinase-dead mutant K47R, not phosphorylated) (domain or fragment, UniProt O43353 1-300, looked up)", "chain": "MNGEAICSALPTIPYHKLADLRYLSRGASGTVSSARHADWRVQVAVRHLHIHTPLLDSERKDVLREAEILHKARFSYILPILGICNEPEFLGIVTEYMPNGSLNELLHRKTEYPDVAWPLRFRILHEIALGVNYLHNMTPPLLHHDLKTQNILLDNEFHVKIADFGLSKWRMMSLSQSRSSKSAPEGGTIIYMPPENYEPGQKSRASIKHDIYSYAVITWEVLSRKQPFEDVTNPLQIMYSVSQGHRPVINEESLPYDIPHRARMISLIESGWAQNPDERPSFLKCLIELEPVLRTFEEI", "notes": "Not phosphorylated by mass spectrometry; also called Rip2_(K47R)"}, "B3": {"name": "RIP2K_(D146N) (RIP2 kinase domain 1-300, kinase-dead mutant D146N, not phosphorylated) (domain or fragment, UniProt O43353 1-300, looked up)", "chain": "B2 chain with R47K, D146N", "notes": "Not phosphorylated by mass spectrometry; also called RIP2K_(D146N)-STAU; RIP2KD146N-STAU; source: mixed with 0.5 mM staurosporine during dialysis"}, "B4": {"name": "RIP2K (kinase domain of Receptor Interacting protein kinase 2, residues 1-300), wild type, phosphorylated (domain or fragment, UniProt O43353 1-300, looked up)", "chain": "B2 chain with R47K", "modifications": "auto-phosphorylated in vitro: phosphoserine at 174, 176, 178 and at 180 or 181 (a maximum of five phosphorylation sites)", "notes": "also called WT RIP2K; RIP2K_(1-300); source: de-phosphorylated with lambda phosphatase and re-phosphorylated before native MS and AUC"}},
  "key": {"[1]": {"biological_target": "the molecule itself", "assay": "crystal structure; RIP2K_(L294F) 5 mg/ml with 2 mM AMPPCP and 5 mM MgCl2; sitting drop, 20°C; P4(1)2(1)2, a dimer in the asymmetric unit; 2.0 Å"}, "[2]": {"biological_target": "the molecule itself", "assay": "AUC; sedimentation velocity at low protein concentration (3-5 μM); 42,000 r.p.m., 4°C; 20 mM Tris pH 7.5, 50 mM NaCl, 5% glycerol, 250 μM TCEP; monomer to dimer"}, "[3]": {"biological_target": "the molecule itself", "assay": "AUC; sedimentation velocity at increased protein concentration (RIP2K at 10 and 18 μM; range tested 4 to 18 μM); 42,000 r.p.m., 4°C; 20 mM Tris pH 7.5, 50 mM NaCl, 5% glycerol, 250 μM TCEP; oligomers beyond the dimer"}, "[4]": {"biological_target": "the molecule itself", "assay": "native MS; 3-5 μM protein in 250 mM ammonium acetate with 1 mM DTT, nano-ESI Q-TOF; RIP2K_(D146N) as the staurosporine sample"}},
  "note": "Numbering of substitutions follows the chain as printed. Names and notes keep the numbering of the source.",
  "data": [
    {"protein": "B1", "values": [
      {"measurement": "binding result", "setting": "[1]", "value": "binds"}
    ]},
    {"protein": "B2", "values": [
      {"measurement": "stoichiometry N", "setting": "[2]", "value": 2},
      {"measurement": "stoichiometry N", "setting": "[3]", "value": 4}
    ]},
    {"protein": "B3", "values": [
      {"measurement": "stoichiometry N", "setting": "[4]", "value": 2}
    ]},
    {"protein": "B4", "values": [
      {"measurement": "stoichiometry N", "setting": "[2]", "value": 2}
    ]}
  ]
}
